Two molecules from US5705154, “Humanized monoclonal antibodies against human interleukin-4” (Schering Corporation, dated 1998) can be followed below.

Where “and” joins values, the source holds several entries; their conditions need not be identical. Equal entries are not always repeated.

The target in assay [1] is T1, human interleukin-4 (human, UniProt P05112, radioiodinated (125I, IODOGEN method) in the binding and competition assays; unlabelled in the reporter gene assay). Nature of the assay: inhibition of 125I-hIL-4 binding to the human IL-4 receptor on Jijoye CJ cells, 4 C. How it is done:
The humanized antibodies were assayed for the ability to inhibit the binding of radiolabelled hIL-4 to the recombinant human IL-4 receptor expressed on Jijoye CJ cells in microtiter plates. Briefly, the humanized antibodies were serially diluted in cell growth medium at protein concentrations of from 8.6 nM to 4 pM. Rat antibody 25D2 was similarly diluted and used as a positive control. Jijoye CJ cells (10^5 cells) and 44 pM ^125I-hIL-4 were then added to each well (200 μl final volume per well) and the plates were incubated for 2 hours at 4° C.
Humanized antibodies h25D2-1 and h25D2-4 antibodies were assayed as described above for the ability to inhibit binding of radiolabeled hIL-4 to recombinant hIL-4 receptors expressed on the Jijoye CJ cell line.

Assay [2] deals with T1, human interleukin-4. Nature of the assay: apparent Kd, Scatchard analysis; purified antibody captured on anti-rat IgG Fc plates, 125I-hIL-4, room temperature.
For assay [3], the target named is T1, human interleukin-4.
Assay [4] concerns the target T1, human interleukin-4. The source holds these as a separate data set.
Assay [5] concerns the target T1, human interleukin-4. Kind of assay: plate competition assay at room temperature; free antibody against immobilized 25D2 as competitor for 125I-hIL-4. As for the experimental part: (§1) Immunosorb plates were coated with a 60 ng/ml solution of the rat 25D2 antibody diluted in PBS (100 μl/well) for at least 16 hours at 4° C. The wells were then blocked with Blocking buffer (3% BSA in PBS) for 4 hours at room temperature. Fifty microliters of 2-fold serially diluted competing antibodies plus the appropriate amount of ^125I-hIL-4 ([…] total volume) were added to each well, and the plates were incubated at room temperature for 16–24 hours. The plates were washed 3 times with potassium phosphate, pH 7.4, plus 0.05% Tween 20. The wells were aspirated dry, and 75 μl of Solubilization buffer (0.1N NaOH/1% SDS) was added to each well and incubated for 30 minutes at room temperature. The solution was removed from each well and counted in an LKB gamma counter.
To further characterize humanized antibody variants h25D2-1 and h25D2-4, competitive binding assays with the humanized antibodies and rat antibody 25D2 were performed as described above.

Assay [6] concerns the target T1, human interleukin-4. Nature of the assay: plate competition assay at room temperature (about 22 C); free antibody against immobilized 25D2 as competitor for 125I-hIL-4. How it is done:
as §1
A plate competition assay was carried out as described above using ^125I-hIL-4, immobilized rat antibody 25D2, and varying levels of free antibodies 25D2, h25D2-1 or h25D2-9.

Assay [7] has as its target T1, human interleukin-4. Kind of assay: apparent Kd, Scatchard analysis; antibody from COS conditioned medium captured on anti-human IgG4 Fc plates, 125I-hIL-4, room temperature. As for the experimental part:
The wells were washed and incubated with ^125I-hIL-4 at concentrations between 4,000 and 2 pM in final volumes of 100 μl. All assays were performed in triplicate, and the background binding was determined by using a 1000-fold molar excess of unlabelled hIL4 in control wells. After incubation for 2 hours at room temperature, the wells were washed, the protein was solubilized in 75 μl of Solubilization buffer [0.1N NaOH/1% sodium dodecylsulfate (SDS)], and the solution was counted in an LKB gamma counter. Concentrations of bound and free hIL4 were determined, and the affinities of the antibodies were determined by Scatchard plot analysis [Berzofsky et al., in *Fundamental Immunology*, 1984, Paul, E. E., Ed., Raven Press, N.Y., N.Y., pp. 595–644].
All five variants of the humanized heavy chain gene were independently co-transfected into COS 7 cells with the pKM20 light chain vector. The serum-free conditioned medium was harvested after 72 hours and concentrated.

B1: rat monoclonal antibody 25D2 (antibody, V domains shown)
VH: ELQLVESGGGLVQPGRSLKLSCVASGFSFRSYWMTWVRQAPGKGLEWIASISISGDNTYYPDSVRGRFTISRDDAKSILYLQMNSLRSEDTATYYCVRDPYYFSGHYFDFWGQGVMVTVSS
VL: DIQMTQSPSLLSASVGDRVTLNCKASQNIYKNLAWYQQKLGEAPKFLIFNAKSLETGVPSRFSGSGSGTDFTLTISSLQPEDVATYFCQQYYSGWTFGGGTKLELKR
For B1, the IC50 in assay [1] was 0.5 to 1 nM and 1 nM. The Kd in assay [2] was 1 nM. In assay [3], this molecule showed an IC50, inhibition of human growth hormone expression under the germline epsilon promoter in Jijoye C12 cells with 1 ng/mL hIL-4 of 0.02 to 0.04 nM.

B2: humanized antibody h25D2-1 (antibody, V domains shown)
VH: EVQLLESGGGLVQPGGSLRLSCAASGFSFRSYWMTWVRQAPGKGLEWVASISISGDNTYYPDSVRGRFTISRNDSKNTLYLQMNGLQAEVSAIYYCARDPYYFSGHYFDFWGQGTLVTVSS
VL: DIQMTQSPSSLSVSVGDRVTITCKASQNIYKNLAWYQQKPGLAPKLLIYNAKSLETGVPSRFSGSGSGTDFTFTISSLQPEDIATYYCQQYYSGWTFGQGTKVEVKR
As for B2, the IC50 in assay [1] was 0.5 nM and 1 nM. This molecule showed a concentration for fifty percent inhibition in the germline epsilon reporter assay, Jijoye C12 cells (FIG. 3), against 25D2 and h25D2-9 in assay [4] of 5 fold. In addition, the “fold less effective than antibody 25D2 in competition” value in assay [5] stood at 3 fold. For the same molecule, the “concentration for fifty percent inhibition relative to antibody h25D2-9” value in assay [6] was 2 fold. The molecule also came in with an IC50, inhibition of human growth hormone expression under the germline epsilon promoter in Jijoye C12 cells with 1 ng/mL hIL-4 in assay [3] of 0.12 nM. The Kd in assay [7] turned out to be 4 nM.

Broadly, the IC50 is the midpoint of a concentration-inhibition curve.
